Results reported in a protein production outcome set (Wang et al. 2014).

Test: label from the status in PepcDB records

Sequence | protein production
MIALHTLLCADTPDDTPVCFDETTTMTRGMFRAHVAACIAAWSDRCANRYALCIDDPFAFACALFALLASGKAVVIPASSAPAYLASIADAYDSALTDGDMEGIISQAAQPPGAALLRPIAPHAPITLYTSGSSAAPKAIHKTLAQFDAEVRTLEDHWGEWIGPGAILASVPHHHIYGLLFRIFWPLASGRAFGRRTYAEPHALQTALTRRETAAIVSSPAQLARWPSLPGFDTLSPLPAAVFSSGGPLDEAAAATFASAHGTAPTEIYGSTETGGIAWRRRNESDAWQAFANVAVRREADGALSVRSPHLGHPDWHRTDDAAEFDDAGRFRLRGRMDRIVKLDGKRVSLPEIENWLGLHPYVAQSAAVLLPGASRERLGVLSALTSAGVEALRQHGRIGLAKTLRRHLAAYVAPTLIPRKWRFRMSLPVDARGKLPASAVAASFAAGRKGFEMLSHVRDAEGDHYELRVPPELVHFRGHFPGLPILPGVVLVDWIACLAAELADSTRSIRSIDQLKFMAPVPPAALVSVQLTHEPQRCRVRFRARLGTRECASGALVYREAD | failed
MIAPSRNLLLCNKGKTELNHSFSMLQAIVESTPYGLLVTNKHGHLLCYNQPYMDMWRIPPEVMVNARHQIIFGHYSSQLRDPQQFLHSTEVIYGTWLPESFDILEFLDGRAFERHTKATTLEGPNMVRVWSFKDITERRQAEAYKAQLAAMVESSDDAIIVKDLNAIITSWNAGAERIFGYQASEITGSSILALIPPERHEEEKGIMSLVKSGNRVDHFETMWWGKGKKPIDVSVTTSAVKDSDGNIVGISQIARDITKRKESQKRIEYLAHYDPLTGLPNRALLADRMKTAIENAKRYSFQLAVLFVDLDHFKLINDSLGHEIGDKLLKIVAERMRSRLRQTDTVSRLGGDEFIILLSRINAASDAACVAEKIIAALSQPYHLEQHELGLGASIGISIYPDSGKDTSSLLRSADEAMYSAKGQGRNRYHGP | failed
MIATTSQQSFNLLRTLAVQKASDFADEFYIYMLKDQEASLFLSSQQVHDRLHGSMSKWIADILTNTGDSLADLINHQKKIGQIHARIGIPVDLVERGARRLKWHLYEHIAQVADDKALCFDAMRFASISMDIAIEIMSKTYSQSHDLEHHHHHH | failed
MICLPETGFLAEASPRLKQMLAAQAAEIGLARGDTLFKQGDPGDALYAVLSGALEISILSLDGRKLSLDLVGPGAVFGEIALFDPGPRTATVSAAEPARVLRVLSADVMAELRRHPELAIDMVRLAGQRMRWMGGQLNEQVFLPVPTRLARKLLHLAPHHDAGGATVRLSQAELAEYVGATREAVSKTLAHWKRMGVIEVARGTLAIRDPQALRALADPDQI | failed
MIDALLNFDFIRYSLISGLLIGFIAPLIGAFIVVRRLSLIADALSHVTLGGISFGMFLLTIIPVFSVINPMWFGILFAVIGALLIEKLRTSFSNYQEIAIPIIMSAGIALSAIFISLADGFNQEIVGLLFGSISAVNISDLTTIIIITIIVLIFIVLFYKELFILSFDEEYSKVIGIPKWIQFLFIVIVAMVISASMRVVGILLVSALITLPIAISMRITKGFKQLIALSVILGELSVILGLIIAFYMNISPGGVIVVLLVLMLILTMIIQKLKIKFKKGVV | failed
MIDCLVMAGGQGARMGFREKPLLSVCGQPMLLRVLSALRMACRRIAIVYSRHTPGVKRLCLSGALGAVECIEGPGSYVKDLRLGFSHISTPLLVAPADMPFLNPHHLNLFIDRALADGASIVNLSLRGRGLTGLSVFKHHRGWWRDVETNGCWALDVDTWEDFRRAGELCGGECTGEGLRLELLEHHHHHH | failed
MIDELRALAVFAKTTETGSFRAAARALGLAPSVVSHHVSQLESRLGVALLYRSTRRLSLTPDGQALYGHAQAMLQAAETGLNELAGRAAEPAGTLRLSLPAFFARGPLTTSLAAFSRCHPKVELELDYSDEKRDLIRDGIDLAIRIGELQDSALKSRRLFDMPRLLVAAPSLLDARGEPASPAELADWPWLGIRMRAKRKTLIDAAGRRHDFAIQPRITANSVDAACQLAIAGCGLATPPAFLVENELAAGQLRVVLPDCQVEALGVYAVWPANAARESLTLRLVRFLAELPPHQ | failed
MIDEWPVPTAAAAVIGPSGVLATHGDDAKPFALASVTKLLVARAAQVAIEEGVVELDTPAGPDGSTVRHLLAHTSGVAMNSADTVAQVGQRRVYSNFGFGLLAHAIEDAAEIEFGRYLTEAVFEPLGMSTSKLLGGADAAGFGVTSTVSDLARFAGDLLRPALVSQQMHDEATSVQFPGVNGVLPGFGSQRPNDWGLGFEIRDGKTPHWTGSSNSPRTFGHFGQSGTFLWVDPVADLALLVLTDRDFGDWTYPLWPAISDGVLREIGTHLEHHHHHH | failed
MIDLKKIKRFAQEIHDKNNDGHGFDHIERVVALARKILLTEPSANQELVLATYLHDTYDEKLTDDVPKQKVKVAQFLNELKIDKKLIDELFMIIDNMSFSSNLIERKTLSLNGQIVQDADRLDAMGAWGIVRTLEYGWAKNRVFYDPNLPPLDYNSKEDYHSQKNNSTLNHFYEKLFLLKDLLNTTEGKRLGEKRDKIMHLFVSQIEEEYKETHLLEHHHHHH | failed
MIDMFPMEKGEEQETYELIVRVFHKYVAPVYSENGVARFLGMLSPEGLSEMNNGKNSFVIVARDQSKIIGMISVINDSHIALFFVSPRYQGKGIGKNILDEAIKNCLNRNPELSAVTVSSSPNSKSFYEEAGFEVIGLEHHHHHH | not failed
MIDNENNVNEPAEEESFAELFEKSNRRTERLRPGSKVDARVLKIGAEWVFLDIGSKGEGVMERKELLDKDGNLTVAEGDTIPVWFVKVERNEMRFTTKVGTGQAGLSALEDAYRAGIPVEGNVEKEIKGGFEIKVGGTVRAFCPYSQISLRRAANPAEFVGRQLLFKVVEFAERGRNIVLSHRAILEEEERQKREALKDTLKEGTTLTGTVTRLMPFGAFVDIGGVEGLIPISEAGWSRVKEIGDVLSVGEQVTALVKRIDWENNKISLSLRDVQADPWEGIAERFPEGSYHTGTVARLAPFGAFVTLAPGIDGLIHISKLGAGKRIAHPREVLKEGDAVEVTVEGVDRESRRLSLALAATKRAAEEEERSIAEFRGKGAAQTKDSMGTFGDILKAQLDDKK | failed
MIDSIRVEGFRGLKELELSSLRRINVIVGRNNSGKSTLLEALSLFLGSSDPGTFGNVLHEILIWRGWYGIQTVDDLFYNGGDSFSISSTGKTLEALNSKHSLEFKLNGEPFYKIDRESIRRLASQAVLLARFSPKENFEFLTPLTFRRFGYAESLYSYAYERKVVKDSIKVLNEAYPEVEGFSPLLKEDNWVLYVETKYGVYPYYLMGEGFKSAMIISFLSSLLRDGVLLIDSAEAFHHPKSLKVMIQTLVRGSEKNNVQVFLTTHSLELLDLMLEMGRDGFVIYMKNVEGRIEVESIEFQRASELRESIGVDLRGFLEHHHHHH | not failed
MIDVINNQAFHLHNDQISYICALLPNGQLGHLYFGPRLSLTKNDLAYLSQGSSPFAWMANFSDDQEFALGDAQQEYPVYGTGDFRQGSLSVTQDDMPIYPNFVFKDDQLTHTKTRDLHHPTSFGNPALTDVLTIHLEDKTAQLLLTLQYTIFADSAAIVRSATLTNQGTAPVMIQRMLSGVLNLPQGRYDVVHLSGNWAKERHIQTQPLTQGTFSVESLRGASSHEQNPFVALHAAGQPFAAGDTYGANLIYSGNFLDSTEVNEWDQTRLLTGIHPASFSWRLDPKTSFTTPETVFSYSSGGLAGLAQANQRFVARHIIDPQWRQKQRPVVLNSWEATYFDLNEKKLLKLAALGKQVGVDCFVLDDGWFGTRDNDLSSLGDWFTNKHKFPDGLGHFAQEIHAMGLQFGLWFEPEMVSPRSQFFQAHPNWVVRPKKGRISITRNQYVLDFSNPAVVNNIFEQMQKVITETNLDYVKWDLNRSITEAFSPYLEKIGHPQGEFFHRYVQGVYTLYQKLLTAFPHLLIEGCAGGGGRFDLGILFYSPQIWTSDDSDAIERLAIQSGMALAYPLSCMSNHVTAVPNEQVGRSTPLVTRFRVAAFGILGYELDLTKLDARTLATIKAQIAYYHALQPLVLKGDFSLLLPRQSNGQNQVAWLLSAHDRKHLVLGFFRVLADADSRTVQYMKVPLAKSDTPYWVNQHTGPISGDVLQRVGVRLPVQFNGANRAQAQLIGDYQSVLLTFDSVASLDHILEHHHHHH | failed
MIEFVYPHTQLVAGVDEVGRGPLVGAVVTAAVILDPARPIAGLNDSKKLSEKRRLALYEEIKEKALSWSLGRAEPHEIDELNILHATMLAMQRAVAGLHIAPEYVLIDGNRCPKLPMPAMAVVKGDSRVPEISAASILAKVTRDAEMAALDIVFPQYGFAQHKGYPTAFHLEKLAEHGATEHHRRSFGPVKRALGLAS | not failed
MIEINIQGSSSAGNNYLLADGNSSLMLEAGLKPKDIMKQGINFSNIQGLLVTHEHGDHSKYINDILLAGRFDVWASRGTLEGLGINRRSHILKANQQQKIGDWLVKPFATIHDDKKARAREPLGFLILSPSGKKIVFATDTNYLPKTFKDVTHWLVECNHDIKLVRQSKLPKSVQDRILRTHMSIDACKKFFQSTDLTKTEEIYLIHLSDKNSDPEKFKEEIEKITNKKIIIA | failed
MIEITFLGGGGGRFVTITQVRATGGFFIKASKNIYVDPGPGALVRMWRYKIDPRKVDVLFISHRHTDHCNDAEVLVEGMTYGVTKKRGTLIGSKSVVHGDENHTPALSKYHLDALEEVHAPNPGDRFKIGEDEMIITPSLHSDPTTIGFRLKTSYGDISYIPDTEYFEELVKWHDGARVIIAAVTRPRDMRIPFHLSSEDAVYLLKSMKQKPEVFIMTHAGMKMHFAGPYKEAQFIQNLTGVKTYVAKEGFKVSIGKEISVKTLRPARFVLEHHHHHH | not failed
MIELEGVPELVDPVMVAAFEGWNDAGDAASTAVAHLDREWKGEVFAALDAEDYYDFQVNRPTVFMEDGVRKITWPTTRLSVVRVGGDKPRDLVLVRGIEPSMRWRSFCNELLGFAHELGVELVVVLGALLGDTPHTRPVPISGTTSDADLARRMDLEETKYEGPTGIVGILQEACTHAGVPAVSLWAAVPHYVSQPPNPKATLALLNRLEDLIGVRVPLGELPEDARAWQVGVDQLAAEDTEVAEYVQSLEEARDTA | not failed
MIELIDPISKQRLEESPEGLRNENGIVVYPLINGAYRVAASDNYTSNFGLEWNTFQKTQIDKFSGNTVSEERLFAQTNWQKNGLEGETILEVGSGAGRFSQIMLDHTKATLYSVDYSEAVEANYRNNGPHERFKLFQASIYELPFKQASFDRVICLGVLQHTPDFKASVKALVEMVKPGGELVIDFYPIRNVFTKVHGKYLLRPILKRVNHHRLMSLIRNNIDFLISIYTFNRRIGLGVFNRFVPICEIERTLPKGMTPEQLKEWIILDTFDMFSPEYDQPQRLSTVAKWVKEFGMADVDASWVTYHGKLEAPTVRGRKVLEHHHHHH | not failed
MIEMAYDDDENSMAIKVWRLYVDLWKLWYKKNERNLNKIDLSITEFTIMRHLIENGPMSMAAIASLINVTPGWITGVVDKMEEKNLVTRNRDSTDRRIIKIAITDRGREVYENAKKNHYAFIRKALAELNENELQQTYVLLQKMMDDVSKLESN | failed
MIETTAALAEACTELAKSEFITIDTEFLRETTFWPELCLVQMASPTLEVLVDPLAKGIDLTPMFELMANPNVVKVFHAARQDIEIIYHLGGLIPHPIFDTQVAAMVCGFGDSISYDQLVQKIKNVQIDKSSRFTDWSRRPLTEKQLDYALADVTHLRDVYLSLKAQLEREGRSLWLTEEMNILESRDTYDMHPDDAWLRLKSRLRKPTELAILKFVAAWREREARSRNVPRSRVLKDDGIFEIAQQQPKDAEALSRLRTIPKGWERSASGTAIIETVNAALALPKEEMPKAPRHSHAPEGSGAAVELLKVLLKLTADKHGVAAKVIANSDDLDKIASEGENATVAALTGWRRELFGDVALKLINGEVALRFAGKKVEAVEVEAAASES | failed
MIEWQLAELIPHAGDMILIDQVLDFDEEQINTRLTVRADGLFNQPDGSLPAWLGIELMAQSVAAYAGCQARSKGEAVKLGFLLGSRKFDCNVARFPAGSELHIHAIRSLQDDSGMGVFECTLTGPDITALARLNVYCPPNTADYLAEGAPALEHHHHHH | not failed
